Data: US20190330374A1

How the values were obtained:
[1] = target: OX40 on activated T cells (PBMCs activated with Human T cell Activator Dynabeads) (human) (UniProt P43489); assay: flow cytometry on activated PBMCs, CD8+ T cells with low OX40
[2] = target: OX40-Fc (R&D) (human) (UniProt P43489); assay: ELISA, plate coated with 0.4 ng/mL OX40-Fc, anti-human kappa-HRP detection
[3] = target: OX40 on activated T cells (PBMCs activated with Human T cell Activator Dynabeads) (human) (UniProt P43489); assay: flow cytometry on activated PBMCs, CD4+ T cells with high OX40
[4] = target: OX40-Fc (R&D) (human) (UniProt P43489); assay: ELISA, plate coated with 1.6 ng/mL OX40-Fc, anti-human kappa-HRP detection

Chain of OX40-Fc (R&D) (human) (P43489 29-216 limits assumed): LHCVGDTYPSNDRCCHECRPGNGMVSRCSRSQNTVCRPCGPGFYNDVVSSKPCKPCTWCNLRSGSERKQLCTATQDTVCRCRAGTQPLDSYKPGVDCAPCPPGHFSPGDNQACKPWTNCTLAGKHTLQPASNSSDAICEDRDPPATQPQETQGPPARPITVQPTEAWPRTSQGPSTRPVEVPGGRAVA
Chain of OX40 on activated T cells (PBMCs activated with Human T cell Activator Dynabeads) (human) (P43489 29-277): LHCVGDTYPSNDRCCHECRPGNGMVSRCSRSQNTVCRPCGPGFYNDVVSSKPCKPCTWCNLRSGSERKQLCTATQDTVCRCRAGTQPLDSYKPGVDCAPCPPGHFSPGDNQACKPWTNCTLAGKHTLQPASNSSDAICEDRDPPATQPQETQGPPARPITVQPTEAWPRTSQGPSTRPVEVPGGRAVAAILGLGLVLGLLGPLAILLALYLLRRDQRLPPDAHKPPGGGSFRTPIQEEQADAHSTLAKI

fold better binding than Anti-OX40 #1-IgG (ratio of Kd, IgG to IgM) [1]: 25 fold | fold better binding than Anti-OX40 #1-IgG (ratio of Bmax) [2]: 28 fold | fold better binding than Anti-OX40 #1-IgG (ratio of Kd, IgG to IgM) [3]: 6 fold | fold better binding than Anti-OX40 #1-IgG (ratio of Bmax) [4]: 1.2 fold
B1: Anti-OX40 #1-IgM (antibody, V domains shown)
VH: QVQLQESGPGLVKPSQTLSLTCAVYGGSFSSGYWNWIRKHPGKGLEYIGYISYNGITYHNPSLKSRITINRDTSKNQYSLQLNSVTPEDTAVYYCARYKYDYDGGHAMDYWGQGTLVTVSS
VL: DIQMTQSPSSLSASVGDRVTITCRASQDISNYLNWYQQKPGKAPKLLIYYTSKLHSGVPSRFSGSGSGTDYTLTISSLQPEDFATYYCQQGSALPWTFGQGTKVEIK
